Test results as given in the RNAGym collection of RNA variant scans (doi:10.1073/pnas.2313332121).
Variants at the floor of the assay were thinned out.

B1: TPR 5TU (parent)
chain: GGAUCUUCUCGAUCUAACAAAAAAGACAAAUCUGCCACAAAGCUUGAGAGCAUCUUCGGAUGCAGAGGCGGCAGCCUUCGGUGGCGCGAUAGCGCCAACGUUCUCAACUAUGACACGCAAAACGCGUGCUCCGUUGAAUGGAGUUUAUCAUG

Variants of: B1
Assay: polymerase ribozyme fitness, log enrichment relative to wild type (log ratio); higher = more active; in vitro selection for triplet polymerase activity
Summary of the method: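 Fitness is a logarithmic measure of how a genotype enriched relative to the wild type, with replicate averages weighted by inverse variance. The logarithm uses base 2, and enrichment came from Illumina sequencing of input and output libraries. Those libraries were PCR-built, transcribed mutants of each subunit of a heterodimeric triplet polymerase ribozyme, passed through one triplicate in vitro selection round that included frozen incubation at −7 °C, gel excision of extended constructs and streptavidin-bead capture. Genotypes were kept only if they had ≥10 input reads and ≥1 read per output.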

| Variant | polymerase ribozyme fitness (log ratio) |
| --- | --- |
| U33A U145C | -4 |
| C32A C36G A47G C72G A89G A91G | ≤ -4.2 |
| U31C G92C G126U | 0.158 |
| C35G G58C G92U C125G A150U | ≤ -4.2 |
| C32G U53A C79U G140U | -4.06 |
| C32U A52C U55G C118U | ≤ -4.2 |
| C32U G46A C51G U53C G67C G86U U101G A138U | ≤ -4.2 |
| C32G U53C C76A | -4.09 |
| U33G C95U | -2.22 |
| U33G G68A C87G C108U A120C G136U | ≤ -4.2 |
| U33A G58C G92A G136U | ≤ -4.2 |
| U31G A89G C95U | -1.41 |
| C32U G68A C85A G94A U139A A147C | ≤ -4.2 |
| C35G G88A C95U U101A G141C | -4.12 |
| G34U G50U A91C | -4.01 |
| G34U A47G C57G G68A U102A | ≤ -4.2 |
| G34A G84A C95G | -0.00509 |
| C35G G58A G59U A60U A73C C116G C123A G140C | ≤ -4.2 |
| U33G C38A C93U A113U G136A A138U | ≤ -4.2 |
| C35U A37C U55A C95U | -1.32 |
| C32G C36U C69U | ≤ -4.2 |
| U31G A39C G50A G92U G117A G140U U145A A147G | ≤ -4.2 |
| U31G G50A C51U G62C G68U C95U U101G A106C | ≤ -4.2 |
| C32A G67A G83A | ≤ -4.2 |

| Variant | polymerase ribozyme fitness (log ratio) |
| --- | --- |
| U33C U56G C93U | ≤ -4.2 |
| C32G U33A C43G G81U G84A A142G | ≤ -4.2 |
| G34C C75A G94A C108G U130A | ≤ -4.2 |
| C32G G42A U77C G84U | ≤ -4.2 |
| C35U C125A U134C | -0.129 |
| U31C C36G U56A G70C G94A C129G | -3 |
| C35U A41C C105A | -4.09 |
| U31C C93U C131U | 1.12 |
| C32G G50U C79G G88U G94C U101C C125A | ≤ -4.2 |
| U33A A115G U139G | ≤ -4.2 |
| C35U G88C C103U | ≤ -4.2 |
| U31C C93G | -3.06 |
| U31G U56A | 0.083 |
| C35U C116U A120G | -0.528 |
| U33G G50U C51G A52C C76A G92A C93A A98U | ≤ -4.2 |
| U31C C51A C69U G81A A91U G124A U144G | ≤ -4.2 |
| C35A G50C G86U C118A | ≤ -4.2 |
| U31G C57G G88U | ≤ -4.2 |
| C35U A49C G59A C96A U148G A150C | ≤ -4.2 |
| U31G | 0.749 |
| U33G A41C C43U G50A G152U | -4.07 |
| U31C U55A G86C | -2.47 |
| G34U G94C | -3.96 |
| U33A C43A C76U G92A G117U | -3.86 |

| Variant | polymerase ribozyme fitness (log ratio) |
| --- | --- |
| C32U G59C A89C G94C | -3.87 |
| G34A G71C C105G G143U | ≤ -4.2 |
| C32G G50A U61A G62C G71A A91U G94C A138C | ≤ -4.2 |
| U31C C32A G80C G81A A115C C118G G133A | ≤ -4.2 |
| C35U C87G | -3.84 |
| C35U A52U C95G A106U A107G C118G | ≤ -4.2 |
| C32A G65A G88A C118U A120C A142G U144C | ≤ -4.2 |
| G34A C85A G133A | ≤ -4.2 |
| U31G G83A A138G | ≤ -4.2 |
| C32U C96G | -1.58 |
| U33G U56A C69U C87G U101C | ≤ -4.2 |
| U31G G59A | 0.625 |
| C32A C51G C72U C85G A97C U101G | ≤ -4.2 |
| U33C C51U G59C C63A A120C C125G U134G | ≤ -4.2 |
| C35U A142G | -1.79 |
| C32U A49C A52G G58U G62C C131G | ≤ -4.2 |
| U33A C69G C87G | ≤ -4.2 |
| G34A A60G G94A A147G A150C | ≤ -4.2 |
| C35U A52G C76A A89C U145A | -3.45 |
| C35U C57A U61A G67A C95A C103A C116U | ≤ -4.2 |
| U31G C99U U145G | -0.861 |
| G34A G46A C76G G136A U144A | ≤ -4.2 |
| U31G C79U U90G A106G C108A A137C | ≤ -4.2 |
| C35U C54U U55A C116G | 0.41 |

| Variant | polymerase ribozyme fitness (log ratio) |
| --- | --- |
| U31G A52C A64U C75G U90C C99U U134G | ≤ -4.2 |
| G34U A37G G50U A89C G92A A138U | ≤ -4.2 |
| U33A C38G A52U C87G G136A | ≤ -4.2 |
| C32U G74A C93U | -0.21 |
| C32U C57U A121U C125U | -1.52 |
| C35A A49G C87A C103A | ≤ -4.2 |
| C35U C57U | 0.194 |
| C35U C57A | 0.0108 |
| C35U C76A C95U U148A | ≤ -4.2 |
| U31C G34A C69G C85U U134C | -1.39 |
| C32G G58C G94U | -3.86 |
| U31G U53A A91G A122G | -3.62 |
| U31C C93U A120G | 0.174 |
| U33G U53G C54U G58A C69U C85A C114U U151A | ≤ -4.2 |
| C35U C93G | -3.19 |
| U33A C75G U78A U101A G152U | -4.02 |
| C32G U82G | ≤ -4.2 |
| C32U A37G G46U U77C G86C A115G A119U | ≤ -4.2 |
| C32U U56A A91U A113U C118A G143C C149U | ≤ -4.2 |
| C32U G59A | -1.99 |
| U33G G65A G70C C108U | ≤ -4.2 |
| C35U A47U U148A A150U | ≤ -4.2 |
| U31G C54A G88A G126A G141A | ≤ -4.2 |
| C35U C57G C85A G124A A138C U139A A142C U144G | ≤ -4.2 |

| Variant | polymerase ribozyme fitness (log ratio) |
| --- | --- |
| C35A A60C A97G U145G | ≤ -4.2 |
| U33C G71C | ≤ -4.2 |
| U31G C38G U101G U139C U146G | -4.03 |
| C35U C85G C132U | -3.12 |
| U33A U44G A107G A122G C132U | ≤ -4.2 |
| C35U A40C U45G G50A G88U A91G G140C | ≤ -4.2 |
| U31C G94C C105A | -1.61 |
| U33A G50A U53A C85G C96G A97U C114G U139A | ≤ -4.2 |
| C32G C87A A115C | ≤ -4.2 |
| U31G G59U A138U | ≤ -4.2 |
| C32G G59C A66G U102A | ≤ -4.2 |
| U33G C35U G59U C75G G128A U139A | -4.05 |
| C35U G84U A89U A97G G143A | -2.66 |
| U31G U61A A66G U90C U101C | ≤ -4.2 |
| C35U C95A C105G | -2.51 |
| G34U C99G A106U U127A C132U U139C | ≤ -4.2 |
| C32U A52C U55G C57A | -3.11 |
| C32G A49C U53A C85U G86U C99A A138G A150G | -4.03 |
| C32U G46U C103G U104G A107C G140C | ≤ -4.2 |
| C35G | -3.25 |
| C35A | -2.69 |
| C35U | -0.0953 |
| G34A C93A | -3.6 |
| G34A U101A | -2.82 |

| Variant | polymerase ribozyme fitness (log ratio) |
| --- | --- |
| G34A A47U G50A C63U | -2.2 |
| C32G A49C A52C G143U | ≤ -4.2 |
| G34A C35A G83C A106U G133U A137G G141U | ≤ -4.2 |
| C32G A91C G117U A137U | ≤ -4.2 |
| G34C C51A G58A G59C C96A A107U | ≤ -4.2 |
| C35U C72U U82G C96U A106G G112A | ≤ -4.2 |
| C35U G58A C95U | -0.16 |
| C35A G62C U109G A122U A142C | ≤ -4.2 |
| C35G G71A C96G U139G | -3.91 |
| C35U A60G C79U G86C C93G G94A U104C | ≤ -4.2 |
| C32G G42U U55A U61A C85A C95A A107U | ≤ -4.2 |
| U31G C85U | 0.998 |
| U31G C35U C57U G117A | -0.0701 |
| C35A A60G C87U C96A G136A U146A | -4.03 |
| U33A G50C U56A C76A G81C | ≤ -4.2 |
| U31G C54U U109G A137G | -2.71 |
| G34C G50U C54A G94U C99U | ≤ -4.2 |
| G34C G58A G68C G84A U90G A120G C125G | ≤ -4.2 |
| C35A G86U C87G A97U C105U A119U A150C | ≤ -4.2 |
| C35A G86A | ≤ -4.2 |
| U33A C72U A73G G124U | -3.23 |
| C35U A39G G84C A106G A120U G152A | ≤ -4.2 |
| G34A C36G C69G C76A C95G G112A | ≤ -4.2 |
| C32U G59C G84A | -1.81 |

| Variant | polymerase ribozyme fitness (log ratio) |
| --- | --- |
| U31G G84A A89G | -0.747 |
| C35U C72U | -0.649 |
| C32G G58A G84A A107G G124C U130G | ≤ -4.2 |
| U31G A91U | -4.03 |
| U33C C36U U56A G84U U90C A110C G143C | ≤ -4.2 |
| G34C C87U | -3.33 |
| C32U U55A C63U C118A | -3.08 |
| C35G G94C U101C A115C | ≤ -4.2 |
| C32G C87A A107G | ≤ -4.2 |
| C35U C96U U101C C118U | -0.95 |
| C32G G59C U61A U82A G84U U134G G140C | ≤ -4.2 |
| U33G G50U U90G C96G | -3.98 |
| C35U C87U A107G G126A G136U G140U | ≤ -4.2 |
| C32G C76G G84C C118U C132G G133C | ≤ -4.2 |
| U31C A98U U134A | -1.41 |
| U31G A52C G83A | -2.81 |
| U33G A39G G62U G92A A122U U134A | ≤ -4.2 |
| U33A G50A A64C G83C | ≤ -4.2 |
| U31G A37C U61A G126C U145C | ≤ -4.2 |
| G34A U55A | -2.46 |
| U33C | -1.48 |
| U33A | -3.29 |
| U33G | -2.4 |
